B1: BN-B03-DNA unmodified (ssDNA)
DNA: GAAGGTGAAGGTCGGCTGAAGCATTAGACCTAAGCACGCTGCCACAAGTCCTGGTTCCCTGGCTTAGGTCTAATGCACCATCATCACCATCTTC
B2: BN-B99-DNA unmodified (ssDNA)
DNA: GAAGGTGAAGGTCGGCTGAAGCATCAGACCTAAGCCCAAATTGCCGCAGACTCGTTGTGAAGCTTAGGTCTAATGCACCATCATCACCATCTTC

Biological target: West Nile virus envelope protein domain III (WNDIII, WNE-rDIII) (West Nile virus strain Wengler, UniProt P06935 P06935:582-692)
Experiment: ELONA; unmodified DNA unable to bind
Conditions: tags: 6xHis; with or without biotin acceptor peptide (BAP); label: 5' biotin

Chain of West Nile virus envelope protein domain III (WNDIII, WNE-rDIII) (P06935 582-692, one chain of several): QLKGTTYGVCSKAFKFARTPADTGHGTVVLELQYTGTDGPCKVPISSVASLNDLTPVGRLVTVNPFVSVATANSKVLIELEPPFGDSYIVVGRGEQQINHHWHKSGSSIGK

Binder | binding result
B1 | no binding
B2 | no binding
